Data on three molecules can be found in paper PMC3947097 (Nature, 2013).

Positions count from the first letter of the chain named.

In one assay the target is ACP (Escherichia coli) (UniProt P0A6A8). Conditions: cited from earlier work.
Assay [1] has as its target T1, His6-LpxD (wild-type E. coli LpxD acyltransferase) (E. coli, UniProt P21645 3-341).
T1 sequence: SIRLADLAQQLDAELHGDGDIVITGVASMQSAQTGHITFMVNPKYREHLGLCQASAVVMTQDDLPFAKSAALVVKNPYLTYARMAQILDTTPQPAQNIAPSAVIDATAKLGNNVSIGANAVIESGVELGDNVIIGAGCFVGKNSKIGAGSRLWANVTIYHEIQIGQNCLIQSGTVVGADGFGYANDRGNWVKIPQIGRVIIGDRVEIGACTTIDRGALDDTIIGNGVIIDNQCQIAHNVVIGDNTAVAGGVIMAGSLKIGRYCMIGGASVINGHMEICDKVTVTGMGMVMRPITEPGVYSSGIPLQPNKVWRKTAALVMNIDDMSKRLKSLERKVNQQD
The assay can be described thus: crystal structure.

For assay [2], the target named is T2, His239Ala His6-LpxD (catalytically inactive) (E. coli, UniProt P21645 3-341, His239Ala).
T2 sequence: T1 sequence with H237A
The assay is described as follows: crystal structure.

Regarding LpxD (from UniProt P21645), in the assay with ACP (Escherichia coli), the Kd (usually a measure of binding affinity in units of concentration) is 59 nM.

B1: holo-ACP (E. coli acyl-carrier-protein with 4'-phosphopantetheine) (natural protein)
chain: SHMSTIEERVKKIIGEQLGVKQEEVTNNASFVEDLGADSLDTVELVMALEEEFDTEIPDEEAEKITTVQAAIDYINGHQA
modifications: 4'-phosphopantetheine (4'-PPT) attached to Ser36, free terminal thiol
In the case of B1, in assay [1], the binding result is given as “binds”.

B2: R-3-hydroxymyristoyl-ACP (intact-acyl-ACP) (natural protein, E. coli)
chain: B1 chain
modifications: 4'-phosphopantetheine attached to Ser36, carrying R-3-hydroxymyristoyl (β-OH-C14) in thioester linkage
On to B2, for which the stoichiometry N (as a rule, the number of molecules, sites or subunits per partner or assembly) in assay [2] is 3 ACP per LpxD trimer.
